This note sets out measurements from paper PMC5603731, “The SET1 Complex Selects Actively Transcribed Target Genes via Multivalent Interaction with CpG Island Chromatin” (Cell Reports, 2017).

No end group written: not given here.

In assay [1] the test system is mouse C127 cells. The experiment in a line: FRAP, nuclear mobility of GFP fusion proteins. It is filed as cell-based. The conditions noted are these: compared to wild-type GFP-CFP1. The method, then:
FRAP experiments were performed on an UltraView spinning disk microscope (Perkin Elmer) equipped with an EM-CCD camera (Hamamatsu) using a 60x/1.4NA oil objective. 50 pre-bleach and 1,000 post-bleach images were captured at a rate of 8 frames per second (fps) (Figures 1B and C) after bleaching a circular diffraction limited spot of ∼2.5 μm diameter using a 488-nm laser line at 100% transmission. Alternatively, to capture the rapid recovery of the P/C/S^∗ mutant effectively, we used an acquisition rate of 13 fps (Figures 1E and F). FRAP curves were calculated in MATLAB, normalizing for the initial conditions (brightness of the cell and brightness of the spot) and corrected for acquisition photobleaching over time ([Mueller et al., 2012]). Half recovery times (t1/2) were calculated using a biexponential fit. Briefly, this involved deriving t1/2 values from individual cells (Figures S1F and S1G) and then collecting the distribution of t1/2 values across biological triplicates for the same transgene (Figures S1H and S1I). To compare the dynamics of individual GFP-CFP1 transgenes, a Student’s t test was then used to calculate the probability (p) that there was no difference between the wild-type and mutant versions of CFP1.
Supplementary Experimental Procedures: […]
Fluorescence recovery after photobleaching (FRAP) […]

Assay [2] deals with CFP1 PHD domain. As to the kind of experiment: other fluorescence titration; intrinsic fluorescence of the CFP1 PHD finger, excitation 280 nm, emission 320-380 nm; increasing concentrations of histone peptide; 20 mM Tris-HCl pH 6.8, 100 mM NaCl, 2.5 mM DTT; 25°C.
Assay [3] has as its target CFP1 PHD domain. As to the kind of experiment: NMR titration; 1H,15N HSQC of 0.1-0.2 mM uniformly 15N-labelled CFP1 PHD finger; histone tail peptides added stepwise; 20 mM Tris-HCl pH 6.8, 100 mM NaCl, 2.5 mM DTT, 7% D2O; 298 K.

For the molecule GFP-SET1A: GFP-tagged wild-type SET1A, the “Nuclear mobility (FRAP)” value in assay [1] is reported as “slightly less mobile than GFP-CFP1”. One may read the Kd as the constant that tells how readily two partners part at equilibrium. Low readings indicate a tighter complex, high ones a looser complex. In assay [2], ARTK(dimethyl)QTARKSTG [H3K4me2 peptide] gave a Kd of 9.1 µM.

B1: unmodified H3K4me0 peptide (peptide)
chain: ARTKQTARKSTG
modifications: here or on the partner: zinc-bound PHD finger; 15N-labelled for NMR. Construct limits are not in the text shown, so the UniProt PHD-type zinc finger limits are used; human is inferred from the NP_001095124.1 alignment and th
B1: in assay [3], the Kd was determined as 373 µM. Consider ARTK(trimethyl)QTARKSTG [H3K4me3 peptide], for which, in assay [2], the Kd was found to be 1.3 µM.

As for ARTK(Me)QTARKSTG [H3K4me1 peptide], in assay [2], the Kd was 64 µM.
